# Measured values as given in IntAct's records for PubMed 25910212.
# B1: Emerin (Homo sapiens), P50402 (parent)
# chain: MDNYADLSDTELTTLLRRYNIPHGPVVGSTRRLYEKKIFEYETQRRRLSPPSSSAASSYSFSDLNSTRGDADMYDLPKKEDALLYQSKGYNDDYYEESYFTTRTYGEPESAGPSRAVRQSVTSFPDADAFHHQVHDDDLLSSSEEECKDRERPMYGRDSAYQSITHYRPVSASRSSLDLSYYPTSSSTSFMSSSSSSSSWLTRRAIRPENRAPGAGLGQDRQVPLWGQLLLFLVFVIVLFFIYHFMQAEEGNPF
# partner: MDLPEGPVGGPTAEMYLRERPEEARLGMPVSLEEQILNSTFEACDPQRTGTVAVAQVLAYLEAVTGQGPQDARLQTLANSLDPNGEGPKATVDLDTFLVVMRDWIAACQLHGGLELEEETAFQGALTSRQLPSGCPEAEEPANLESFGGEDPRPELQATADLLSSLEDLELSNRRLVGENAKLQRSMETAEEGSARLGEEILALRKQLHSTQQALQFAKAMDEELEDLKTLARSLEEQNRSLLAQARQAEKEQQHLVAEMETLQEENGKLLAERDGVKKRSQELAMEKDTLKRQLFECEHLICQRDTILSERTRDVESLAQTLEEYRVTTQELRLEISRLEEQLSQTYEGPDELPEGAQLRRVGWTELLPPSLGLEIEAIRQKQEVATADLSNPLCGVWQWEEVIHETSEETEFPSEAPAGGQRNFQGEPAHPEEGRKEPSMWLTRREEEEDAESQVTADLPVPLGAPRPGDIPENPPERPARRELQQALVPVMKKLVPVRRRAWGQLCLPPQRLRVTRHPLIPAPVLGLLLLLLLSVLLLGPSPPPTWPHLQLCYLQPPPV
# B2: Krev interaction trapped protein 1 (Homo sapiens), O00522 (parent)
# chain: MGNPENIEDAYVAVIRPKNTASLNSREYRAKSYEILLHEVPIEGQKKKRKKVLLETKLQGNSEITQGILDYVVETTKPISPANQGIRGKRVVLMKKFPLDGEKMGREASLFIVPSVVKDNTKYTYTPGCPIFYCLQDIMRVCSESSTHFATLTARMLIALDKWLDERHAQSHFIPALFRPSPLERIKTNVINPAYATESGQTENSLHMGYSALEIKSKMLALEKADTCIYNPLFGSDLQYTNRVDKVVINPYFGLGAPDYSKIQIPKQEKWQRSMSSVTEDKERQWVDDFPLHRSACEGDSELLSRLLSERFSVNQLDSDHWAPIHYACWYGKVEATRILLEKGKCNPNLLNGQLSSPLHFAAGGGHAEIVQILLNHPETDRHITDQQGRSPLNICEENKQNNWEEAAKLLKEAINKPYEKVRIYRMDGSYRSVELKHGNNTTVQQIMEGMRLSQETQQYFTIWICSENLSLQLKPYHKPLQHVRDWPEILAELTNLDPQRETPQLFLRRDVRLPLEVEKQIEDPLAILILFDEARYNLLKGFYTAPDAKLITLASLLLQIVYGNYESKKHKQGFLNEENLKSIVPVTKLKSKAPHWTNRILHEYKNLSTSEGVSKEMHHLQRMFLQNCWEIPTYGAAFFTGQIFTKASPSNHKVIPVYVGVNIKGLHLLNMETKALLISLKYGCFMWQLGDTDTCFQIHSMENKMSFIVHTKQAGLVVKLLMKLNGQLMPTERNS
# partner: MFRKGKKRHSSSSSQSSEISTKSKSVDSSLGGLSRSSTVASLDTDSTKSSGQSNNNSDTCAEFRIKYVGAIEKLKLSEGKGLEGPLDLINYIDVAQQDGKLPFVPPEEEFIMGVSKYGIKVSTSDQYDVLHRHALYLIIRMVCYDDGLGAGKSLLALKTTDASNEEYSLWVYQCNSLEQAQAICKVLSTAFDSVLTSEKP
# B3: Tyrosine-protein kinase BTK (Homo sapiens), Q06187 (parent)
# chain: MAAVILESIFLKRSQQKKKTSPLNFKKRLFLLTVHKLSYYEYDFERGRRGSKKGSIDVEKITCVETVVPEKNPPPERQIPRRGEESSEMEQISIIERFPYPFQVVYDEGPLYVFSPTEELRKRWIHQLKNVIRYNSDLVQKYHPCFWIDGQYLCCSQTAKNAMGCQILENRNGSLKPGSSHRKTKKPLPPTPEEDQILKKPLPPEPAAAPVSTSELKKVVALYDYMPMNANDLQLRKGDEYFILEESNLPWWRARDKNGQEGYIPSNYVTEAEDSIEMYEWYSKHMTRSQAEQLLKQEGKEGGFIVRDSSKAGKYTVSVFAKSTGDPQGVIRHYVVCSTPQSQYYLAEKHLFSTIPELINYHQHNSAGLISRLKYPVSQQNKNAPSTAGLGYGSWEIDPKDLTFLKELGTGQFGVVKYGKWRGQYDVAIKMIKEGSMSEDEFIEEAKVMMNLSHEKLVQLYGVCTKQRPIFIITEYMANGCLLNYLREMRHRFQTQQLLEMCKDVCEAMEYLESKQFLHRDLAARNCLVNDQGVVKVSDFGLSRYVLDDEYTSSVGSKFPVRWSPPEVLMYSKFSSKSDIWAFGVLMWEIYSLGKMPYERFTNSETAEHIAQGLRLYRPHLASEKVYTIMYSCWHEKADERPTFKILLSNILDVMDEES
# B4: U4/U6 small nuclear ribonucleoprotein Prp31 (Homo sapiens), Q8WWY3 (parent)
# chain: MSLADELLADLEEAAEEEEGGSYGEEEEEPAIEDVQEETQLDLSGDSVKTIAKLWDSKMFAEIMMKIEEYISKQAKASEVMGPVEAAPEYRVIVDANNLTVEIENELNIIHKFIRDKYSKRFPELESLVPNALDYIRTVKELGNSLDKCKNNENLQQILTNATIMVVSVTASTTQGQQLSEEELERLEEACDMALELNASKHRIYEYVESRMSFIAPNLSIIIGASTAAKIMGVAGGLTNLSKMPACNIMLLGAQRKTLSGFSSTSVLPHTGYIYHSDIVQSLPPDLRRKAARLVAAKCTLAARVDSFHESTEGKVGYELKDEIERKFDKWQEPPPVKQVKPLPAPLDGQRKKRGGRRYRKMKERLGLTEIRKQANRMSFGEIEEDAYQEDLGFSLGHLGKSGSGRVRQTQVNEATKARISKTLQRTLQKQSVVYGGKSTIRDRSSGTASSVAFTPLQGLEIVNPQAAEKKVAEANQKYFSSMAEFLKVKGEKSGLMST
# partner: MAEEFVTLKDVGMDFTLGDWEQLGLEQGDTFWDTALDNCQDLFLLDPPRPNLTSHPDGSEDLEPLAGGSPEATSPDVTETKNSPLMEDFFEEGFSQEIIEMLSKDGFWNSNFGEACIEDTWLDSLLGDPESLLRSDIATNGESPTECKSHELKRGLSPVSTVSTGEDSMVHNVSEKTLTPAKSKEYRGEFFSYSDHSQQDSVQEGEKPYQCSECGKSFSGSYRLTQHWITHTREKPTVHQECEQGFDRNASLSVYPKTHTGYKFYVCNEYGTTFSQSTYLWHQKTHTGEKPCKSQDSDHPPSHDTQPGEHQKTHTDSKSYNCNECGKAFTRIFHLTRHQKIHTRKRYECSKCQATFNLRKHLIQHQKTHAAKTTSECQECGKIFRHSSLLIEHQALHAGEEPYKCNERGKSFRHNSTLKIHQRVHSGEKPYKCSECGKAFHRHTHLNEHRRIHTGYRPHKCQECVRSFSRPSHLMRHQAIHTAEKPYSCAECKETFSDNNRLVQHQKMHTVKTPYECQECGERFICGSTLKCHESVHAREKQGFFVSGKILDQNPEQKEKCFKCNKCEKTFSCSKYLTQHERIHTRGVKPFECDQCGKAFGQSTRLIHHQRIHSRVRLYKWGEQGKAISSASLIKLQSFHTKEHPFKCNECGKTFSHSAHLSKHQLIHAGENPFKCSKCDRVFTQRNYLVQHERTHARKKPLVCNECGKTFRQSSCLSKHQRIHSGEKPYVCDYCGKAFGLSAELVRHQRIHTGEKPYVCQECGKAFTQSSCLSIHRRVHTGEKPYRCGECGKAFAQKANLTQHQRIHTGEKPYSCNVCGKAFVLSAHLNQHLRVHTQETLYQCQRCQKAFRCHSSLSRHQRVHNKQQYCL
# B5: Plasma membrane ascorbate-dependent reductase CYBRD1 (Homo sapiens), Q53TN4 (parent)
# chain: MAMEGYWRFLALLGSALLVGFLSVIFALVWVLHYREGLGWDGSALEFNWHPVLMVTGFVFIQGIAIIVYRLPWTWKCSKLLMKSIHAGLNAVAAILAIISVVAVFENHNVNNIANMYSLHSWVGLIAVICYLLQLLSGFSVFLLPWAPLSLRAFLMPIHVYSGIVIFGTVIATALMGLTEKLIFSLRDPAYSTFPPEGVFVNTLGLLILVFGALIFWIVTRPQWKRPKEPNSTILHPNGGTEQGARGSMPAYSGNNMDKSDSELNSEVAARKRNLALDEAGQRSTM
# B6: EF-hand domain-containing protein 1 (Homo sapiens), Q5JVL4 (parent)
# chain: MVSNPVHGLPFLPGTSFKDSTKTAFHRSQTLSYRNGYAIVRRPTVGIGGDRLQFNQLSQAELDELASKAPVLTYGQPKQAPPADFIPAHVAFDKKVLKFDAYFQEDVPMSTEEQYRIRQVNIYYYLEDDSMSVIEPVVENSGILQGKLIKRQRLAKNDRGDHYHWKDLNRGINITIYGKTFRVVDCDQFTQVFLESQGIELNPPEKMALDPYTELRKQPLRKYVTPSDFDQLKQFLTFDKQVLRFYAIWDDTDSMYGECRTYIIHYYLMDDTVEIREVHERNDGRDPFPLLMNRQRVPKVLVENAKNFPQCVLEISDQEVLEWYTAKDFIVGKSLTILGRTFFIYDCDPFTRRYYKEKFGITDLPRIDVSKREPPPVKQELPPYNGFGLVEDSAQNCFALIPKAPKKDVIKMLVNDNKVLRYLAVLESPIPEDKDRRFVFSYFLATDMISIFEPPVRNSGIIGGKYLGRTKVVKPYSTVDNPVYYGPSDFFIGAVIEVFGHRFIILDTDEYVLKYMESNAAQYSPEALASIQNHVRKREAPAPEAESKQTEKDPGVQELEALIDTIQKQLKDHSCKDNIREAFQIYDKEASGYVDRDMFFKICESLNVPVDDSLVKELIRMCSHGEGKINYYNFVRAFSN
# partner: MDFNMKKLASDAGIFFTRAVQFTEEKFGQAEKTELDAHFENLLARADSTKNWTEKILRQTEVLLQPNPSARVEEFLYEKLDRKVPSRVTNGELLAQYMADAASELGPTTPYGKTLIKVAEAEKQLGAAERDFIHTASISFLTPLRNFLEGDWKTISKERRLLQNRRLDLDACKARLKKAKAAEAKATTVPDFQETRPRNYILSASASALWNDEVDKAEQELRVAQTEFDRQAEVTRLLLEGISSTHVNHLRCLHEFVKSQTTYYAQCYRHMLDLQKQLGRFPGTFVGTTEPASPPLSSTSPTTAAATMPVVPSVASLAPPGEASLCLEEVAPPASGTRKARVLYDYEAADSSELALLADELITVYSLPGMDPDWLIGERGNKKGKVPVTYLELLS
# Variants of: B1
# Settings: with kash5_human KASH5, Q8N6L0
row,effect of a mutation on the interaction,Variant
1,with no effect,D72V
2,with no effect,S54F

# Variants of: B2
# Settings: with itbp1_human ITGB1BP1, O14713
row,effect of a mutation on the interaction,Variant
1,with no effect,D137G

# Variants of: B3
# Settings: with meox2_human MEOX2, P50222
# Sequence of meox2_human MEOX2, P50222 (P50222 whole entry): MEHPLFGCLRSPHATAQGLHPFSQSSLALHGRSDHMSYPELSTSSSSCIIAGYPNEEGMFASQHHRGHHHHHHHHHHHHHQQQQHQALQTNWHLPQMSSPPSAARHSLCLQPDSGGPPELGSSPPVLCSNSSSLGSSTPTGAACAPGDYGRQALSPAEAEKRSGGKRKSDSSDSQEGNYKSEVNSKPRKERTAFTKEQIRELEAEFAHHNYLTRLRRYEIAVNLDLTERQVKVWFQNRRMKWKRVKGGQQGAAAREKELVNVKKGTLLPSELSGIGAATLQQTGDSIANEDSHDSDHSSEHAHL
row,effect of a mutation on the interaction,Variant
1,disrupting interaction strength,P565L

# Variants of: B4
# Settings: with zn473_human ZNF473, Q8WTR7
row,effect of a mutation on the interaction,Variant
1,with no effect,L107V

# Variants of: B5
# Settings: with stx4_human STX4, Q12846
# Sequence of stx4_human STX4, Q12846 (Q12846 whole entry): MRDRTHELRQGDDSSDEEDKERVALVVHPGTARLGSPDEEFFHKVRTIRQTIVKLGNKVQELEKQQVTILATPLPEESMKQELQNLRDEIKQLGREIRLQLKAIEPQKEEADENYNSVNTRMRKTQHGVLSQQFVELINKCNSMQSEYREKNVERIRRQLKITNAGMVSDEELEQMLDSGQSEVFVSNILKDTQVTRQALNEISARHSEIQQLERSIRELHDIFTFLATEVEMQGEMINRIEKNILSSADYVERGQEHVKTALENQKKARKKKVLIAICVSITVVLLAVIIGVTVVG
row,effect of a mutation on the interaction,Variant
1,with no effect,R226H

# Variants of: B6
# Settings: with shlb2_human SH3GLB2, Q9NR46
row,effect of a mutation on the interaction,Variant
1,disrupting interaction strength,A394S
2,disrupting interaction strength,R221H
3,with no effect,R159W
4,disrupting interaction strength,P77T
5,with no effect,M448T
